Laboratory results reported in patent US11608374 (dated 2023).

T1: cynomolgus sclerostin (cynomolgus monkey)
T1 chain: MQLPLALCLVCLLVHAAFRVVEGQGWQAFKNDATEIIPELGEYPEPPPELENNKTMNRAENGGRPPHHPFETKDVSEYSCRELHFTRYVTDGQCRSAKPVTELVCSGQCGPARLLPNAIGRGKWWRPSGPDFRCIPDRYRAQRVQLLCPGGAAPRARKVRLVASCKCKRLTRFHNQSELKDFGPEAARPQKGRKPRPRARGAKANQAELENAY

T2: mouse sclerostin (mouse)
T2 chain: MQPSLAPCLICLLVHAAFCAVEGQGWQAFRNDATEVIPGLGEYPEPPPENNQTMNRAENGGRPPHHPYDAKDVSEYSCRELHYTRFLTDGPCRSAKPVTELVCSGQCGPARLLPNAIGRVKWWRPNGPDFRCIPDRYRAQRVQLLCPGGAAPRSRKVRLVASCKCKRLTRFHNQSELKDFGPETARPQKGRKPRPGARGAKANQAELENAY

T3: rat sclerostin (rat)
T3 chain: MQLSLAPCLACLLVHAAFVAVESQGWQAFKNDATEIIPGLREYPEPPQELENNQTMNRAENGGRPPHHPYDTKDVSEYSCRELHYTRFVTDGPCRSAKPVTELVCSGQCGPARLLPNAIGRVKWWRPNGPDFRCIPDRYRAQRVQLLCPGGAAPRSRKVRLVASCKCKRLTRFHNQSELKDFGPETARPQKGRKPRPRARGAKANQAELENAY

T4: human sclerostin (human)
T4 chain: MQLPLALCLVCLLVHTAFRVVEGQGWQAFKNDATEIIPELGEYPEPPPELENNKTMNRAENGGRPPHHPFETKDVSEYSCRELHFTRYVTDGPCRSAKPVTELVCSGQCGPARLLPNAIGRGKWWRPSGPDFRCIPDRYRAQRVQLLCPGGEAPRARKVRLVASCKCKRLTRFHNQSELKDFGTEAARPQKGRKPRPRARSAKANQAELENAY


Legend:
cynomolgus sclerostin [1] = biological target: T1, cynomolgus sclerostin; experiment: SPR, pH 7.4, 37C
mouse sclerostin [2] = biological target: T2, mouse sclerostin; experiment: SPR, pH 5.8, 37C
rat sclerostin [3] = biological target: T3, rat sclerostin; experiment: SPR, pH 5.8, 37C
human sclerostin [4] = biological target: T4, human sclerostin; experiment: SPR, pH 7.4, 37C
mouse sclerostin [5] = biological target: T2, mouse sclerostin; experiment: SPR, pH 7.4, 37C
rat sclerostin [6] = biological target: T3, rat sclerostin; experiment: SPR, pH 7.4, 37C
cynomolgus sclerostin [7] = biological target: T1, cynomolgus sclerostin; experiment: SPR, pH 7.4 to 5.8, 37C
human sclerostin [8] = biological target: T4, human sclerostin; experiment: SPR, pH 7.4 to 5.8, 37C
rat sclerostin [9] = biological target: T3, rat sclerostin; experiment: SPR, pH 7.4 to 5.8, 37C

Binder | Kd (cynomolgus sclerostin [1]) [pM] | Kd (mouse sclerostin [2]) [pM] | Kd (rat sclerostin [3]) [pM] | Kd (human sclerostin [4]) [pM] | Kd (mouse sclerostin [5]) [pM] | Kd (rat sclerostin [6]) [pM] | koff (cynomolgus sclerostin [7]) [s⁻¹] | koff (human sclerostin [8]) [s⁻¹] | koff (rat sclerostin [9]) [s⁻¹]
mabA_pH1 (antibody, V domains shown) VH: EVQLVQSGAEVKKPGASVKVSCKASGYTFTDYNMHWVRQAPGQGLEWMGEINPNSGHAGYNQKFKGRVTMTTDTSTSTAYMELRSLRSDDTAVYYCARLHYDDIYDDWYFDVWGQGTTVTVSS VL: DIQMTQSPSSLSASVGDRVTITCRASHDISNYLNWYQQKPGKAPKLLIYYTSRLLSGVPSRFSGSGSGTDFTLTISSLQPEDFATYYCQQGDTLPYTFGGGTKVEIK | 202 | 5210 | 4200 | 213 | 63.2 | 25.2 | 0.0156 | 0.0131 | –
mabA_pH2 (antibody, V domains shown) VH: EVQLVQSGAEVKKPGASVKVSCKASGYTFTDYNMHWVRQAPGQGLEWMGEINPNSGHAGYNQKFKGRVTMTTDTSTSTAYMELRSLRSDDTAVYYCARLHYDHIYDDWYFDVWGQGTTVTVSS VL: DIQMTQSPSSLSASVGDRVTITCRASHDISNYLNWYQQKPGKAPKLLIYYTSRLLSGVPSRFSGSGSGTDFTLTISSLQPEDFATYYCQQGDTLPYTFGGGTKVEIK | 252 | 5430 | 4450 | 258 | 80.7 | 31.2 | 0.0165 | 0.0139 | –
mabA_pH3 (antibody, V domains shown) VH: EVQLVQSGAEVKKPGASVKVSCKASGYTFTDYNMHWVRQAPGQGLEWMGEINPHSGHAGYNQKFKGRVTMTTDTSTSTAYMELRSLRSDDTAVYYCARLHYDDIHDDWYFDVWGQGTTVTVSS VL: DIQMTQSPSSLSASVGDRVTITCRASHDISNYLNWYQQKPGKAPKLLIYYTSRLLSGVPSRFSGSGSGTDFTLTISSLQPEDFATYYCQQGDTLPYTFGGGTKVEIK | – | 1050 | – | – | 287 | 184 | – | – | 0.0182
